For this experiment, the target named is R276S/M395R GltPh mutant (Pyrococcus horikoshii) (UniProt O59010). Put plainly: crystal structure.

The values that follow come from article PMC4351760.

As usually defined, the stoichiometry N is the number of molecules, sites or subunits per partner or assembly.

In turn, “R276S/M395R GltPh mutant (from UniProt O59010 1-417) (natural protein)” showed a stoichiometry N of 3.
